In PMC5640511 (Current Biology, 2017):

Target: Bub3 (recombinant, untagged) (human, UniProt O43684 1-328)
Experiment: SEC

Sequence of Bub3 (recombinant, untagged) (O43684 whole entry): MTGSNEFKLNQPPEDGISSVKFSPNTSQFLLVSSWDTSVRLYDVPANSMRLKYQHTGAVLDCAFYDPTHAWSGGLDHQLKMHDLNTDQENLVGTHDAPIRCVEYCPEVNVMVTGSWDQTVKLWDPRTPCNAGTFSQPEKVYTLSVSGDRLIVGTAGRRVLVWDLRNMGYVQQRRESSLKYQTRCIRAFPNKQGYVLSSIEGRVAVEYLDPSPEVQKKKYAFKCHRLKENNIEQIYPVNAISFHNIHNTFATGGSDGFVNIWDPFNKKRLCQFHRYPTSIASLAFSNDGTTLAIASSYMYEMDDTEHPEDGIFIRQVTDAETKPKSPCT

B1: BubR1 1-571 B1-LL (recombinant) (other)
chain: MAAVKKEGGALSEAMSLEGDEWELSKENVQPLRQGRIMSTLQGALAQESACNNTLQQQKRAFEYEIRFYTGNDPLDVWDRYISWTEQNYPQGGKESNMSTLLERAVEALQGEKRYYSDPRFLNLWLKLGRLCNEPLDMYSYLHNQGIGVSLAQFYISWAEEYEARENFRKADAIFQEGIQQKAEPLERLQSQHRQFQARVSRQTLLALEKEEEEEVFESSVPQRSTLAELKSKGKKTARAPIIRVGGALKAPSQNRGLQNPFPQQMQNNSRITVFDENADEASTAELSKPTVQPWIAPPMPRAKENELQAGPWNTGRSLEHRPRGNTASLIAVPAVLPSFTPYVEETARQPVMTPCKIEPSIRRVITISKSEYSVHSSLASKVDVEQVVMYCKEKIYAGVGEFSFEEIRAEVFRKKLKEQREAELLTSAEKRAEMQKQIEEMEKKLKEIQTTQQERTGDQQEETMPTKETTKLQIASESQKIPGMTLSSSVCQVNCCARETSLAENIWQEQPHSKGPSVPFSIFDEFLLSEKKNKSPPADPPRVLAQRRPLAVLKTSESITSNE
B1: binds.
